Assay results published in patent EP2585123B1 (Planton GmbH, dated 2014).
Ends that are not written are not given here.

Molecular target: collagen scaffold (bovine collagen type I) (bovine, UniProt P02453 162-1217; P02465 80-1117)
Test: cell-based or functional assay

collagen scaffold (bovine collagen type I), sequence (P02453 162-1217, chain 1 of 2): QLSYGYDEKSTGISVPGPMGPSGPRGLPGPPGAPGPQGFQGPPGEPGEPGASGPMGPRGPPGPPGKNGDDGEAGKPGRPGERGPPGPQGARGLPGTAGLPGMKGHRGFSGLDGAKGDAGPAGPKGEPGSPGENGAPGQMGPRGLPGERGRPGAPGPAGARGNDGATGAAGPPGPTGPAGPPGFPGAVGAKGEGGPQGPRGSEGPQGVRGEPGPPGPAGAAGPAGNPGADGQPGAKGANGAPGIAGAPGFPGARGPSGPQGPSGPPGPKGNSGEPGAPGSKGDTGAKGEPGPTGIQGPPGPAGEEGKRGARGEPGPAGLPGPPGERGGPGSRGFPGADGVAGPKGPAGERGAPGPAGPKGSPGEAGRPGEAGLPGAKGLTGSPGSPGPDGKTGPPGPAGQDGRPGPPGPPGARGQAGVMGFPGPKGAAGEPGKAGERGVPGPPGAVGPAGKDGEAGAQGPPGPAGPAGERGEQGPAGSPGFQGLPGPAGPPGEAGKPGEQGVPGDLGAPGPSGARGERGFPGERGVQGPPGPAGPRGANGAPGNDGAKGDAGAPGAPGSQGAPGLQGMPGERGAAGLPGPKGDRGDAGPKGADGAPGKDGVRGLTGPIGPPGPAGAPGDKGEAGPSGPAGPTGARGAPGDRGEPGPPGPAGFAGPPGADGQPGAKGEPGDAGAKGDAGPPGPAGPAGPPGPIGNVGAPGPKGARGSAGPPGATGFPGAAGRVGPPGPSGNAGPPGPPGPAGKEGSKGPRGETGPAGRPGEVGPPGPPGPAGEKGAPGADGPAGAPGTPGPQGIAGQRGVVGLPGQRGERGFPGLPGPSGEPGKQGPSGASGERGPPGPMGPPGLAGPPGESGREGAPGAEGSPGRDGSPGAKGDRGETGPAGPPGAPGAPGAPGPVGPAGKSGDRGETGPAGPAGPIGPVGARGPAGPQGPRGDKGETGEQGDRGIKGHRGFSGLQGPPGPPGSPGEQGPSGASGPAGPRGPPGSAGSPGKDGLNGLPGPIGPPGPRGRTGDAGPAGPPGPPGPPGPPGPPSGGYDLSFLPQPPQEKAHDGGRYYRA
collagen scaffold (bovine collagen type I), sequence (P02465 80-1117, chain 2 of 2): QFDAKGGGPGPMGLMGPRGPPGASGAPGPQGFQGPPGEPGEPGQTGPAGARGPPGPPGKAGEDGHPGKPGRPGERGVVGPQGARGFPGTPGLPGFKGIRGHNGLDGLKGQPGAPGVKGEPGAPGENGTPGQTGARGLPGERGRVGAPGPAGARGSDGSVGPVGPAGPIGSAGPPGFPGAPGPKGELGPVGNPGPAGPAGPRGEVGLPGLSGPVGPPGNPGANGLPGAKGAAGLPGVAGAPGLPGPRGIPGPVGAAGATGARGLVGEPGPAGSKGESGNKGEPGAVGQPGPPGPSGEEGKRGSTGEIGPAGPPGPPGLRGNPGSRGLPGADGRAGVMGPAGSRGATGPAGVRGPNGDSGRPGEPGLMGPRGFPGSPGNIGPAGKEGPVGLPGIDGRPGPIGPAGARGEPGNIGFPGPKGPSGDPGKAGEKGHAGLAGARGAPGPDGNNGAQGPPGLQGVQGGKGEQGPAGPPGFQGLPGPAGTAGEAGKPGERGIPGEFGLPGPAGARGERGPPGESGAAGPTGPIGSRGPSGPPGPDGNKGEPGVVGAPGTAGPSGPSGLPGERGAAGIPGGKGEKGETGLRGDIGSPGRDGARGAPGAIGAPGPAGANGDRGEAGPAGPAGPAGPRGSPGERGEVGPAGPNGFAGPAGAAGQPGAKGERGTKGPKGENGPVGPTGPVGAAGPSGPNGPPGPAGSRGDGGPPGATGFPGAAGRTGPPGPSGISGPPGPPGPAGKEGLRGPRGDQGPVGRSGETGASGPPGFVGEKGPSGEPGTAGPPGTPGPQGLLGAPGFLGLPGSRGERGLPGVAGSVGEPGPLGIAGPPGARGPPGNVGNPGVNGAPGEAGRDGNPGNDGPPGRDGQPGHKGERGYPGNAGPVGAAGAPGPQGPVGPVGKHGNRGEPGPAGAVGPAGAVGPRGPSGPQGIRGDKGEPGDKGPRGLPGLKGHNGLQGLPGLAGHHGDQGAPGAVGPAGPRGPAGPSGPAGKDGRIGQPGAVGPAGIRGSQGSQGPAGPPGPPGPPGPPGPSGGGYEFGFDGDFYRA

GIGDPVTCLKSGAICHPVFCPRRYKQIGTCGLPGTKCCKKP (ends and bridges not checked; cysteine pairing not given here) [human β-defensin-2]
hBD2 released by the collagen scaffold (agar diffusion assay, zone of inhibition, 10 µg hβD2): 40%
hBD2 retarded by the collagen scaffold (agar diffusion assay, zone of inhibition, 10 µg hβD2): 60%
killing of the bacteria, collagen scaffold treated with 5 µg HAS, 4 µg hβD2, microdilution assay: 100%
killing rate, collagen scaffold treated with 5 µg BSA, 4 µg hβD2, microdilution assay: 98%
killing rate, collagen scaffold without gelatine (unblocked), 4 µg hβD2, microdilution assay: 86%
killing, collagen scaffold pre-treated with 10 µl of a 0.1% gelatine solution, 4 µg hβD2, microdilution assay: 94%
